Reference: patent US20230212304A1 (BIOSION, published 2023)
Changes are numbered by the printed parent chain.

T1: recombinant human CTLA4 protein with human IgG1 Fc tag at the C-terminus (Acro biosystems, Cat#CT4-H5255) (human, UniProt P16410 37-162)
T1 construct: bought protein; also called human CTLA4-Fc; CTLA4-Fc; not shown: human IgG1 Fc tag at the C-terminus
T1 sequence (looked up): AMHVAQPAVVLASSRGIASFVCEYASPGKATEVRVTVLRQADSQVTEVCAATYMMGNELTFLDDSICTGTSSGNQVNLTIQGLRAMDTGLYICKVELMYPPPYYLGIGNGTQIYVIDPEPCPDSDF

T2: recombinant human CTLA4-his protein (Acro biosystems, Cat#CT4-H5229) (human, UniProt P16410 37-162)
T2 construct: bought recombinant protein; not shown: his tag
T2 sequence (looked up): T1 sequence (looked up)

T3: cynomolgus monkey CTLA4-his protein (Acro biosystems, Cat#CT4-C5227) (cynomolgus monkey, UniProt G7PL88 36-161)
T3 construct: bought recombinant protein; also called Cynomolgus CTLA4-his; not shown: his tag
T3 sequence: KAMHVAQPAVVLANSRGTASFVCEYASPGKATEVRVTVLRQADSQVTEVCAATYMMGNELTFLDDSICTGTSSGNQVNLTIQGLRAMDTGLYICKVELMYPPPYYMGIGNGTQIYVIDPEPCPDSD

B1: mouse anti-CTLA4 monoclonal antibody D2A4 (antibody, V domains shown)
VH: QVQLQQPGAELVKPGSSVNLSCKASGYTFTSYWVHWVKQGPGRGLEWIGRIDPNRGGTYYNENFKTKAALTVDSPSSTAYMHLSSLTSEDSAVYYCARGGLNYYALDYWGQGTSVTVSS
VL: DIQMTQSPASLFASLGETVTITCRASENIYSYLAWYQQKQGKSPQLLVYNANTLTEGVPSSFSGSGSGTQFSLKINTLQPEDFGTYYCQHHYGIPFTFGSGTKLEIK
notes: mouse mAb purified from hybridoma supernatant
B2: mouse anti-CTLA4 monoclonal antibody D1A7 (antibody, V domains shown)
VH: QVTLKESGPGMLQPSQTLSLTCSFSGFSLSSSKLGVGWIRQPAGKGLEWLAHIWWNDDNYYVPSLKSRLTISKDTSNNQVFLKITNVDAADTATYYCVQVPYYTTQPWFAYWGQGTLVTVSA
VL: DIQMTQSPASLSASVGETVTITCRASGNIHNYLAWYLQNQGRSPQLLVYNTETLADGVSSRFSGSGSGTQYFLKISSLQPEDFGTYYCQHLWSTPWTFGGGTKLEIK
notes: as for B1
B3: mouse anti-CTLA4 monoclonal antibody D1H4 (antibody, V domains shown)
VH: EVQLQQSGPVLVKPGASVKMSCKASGYTFTDYYMNWVKQSHGKSLEWIGAINPDHGGSSYNQKFKGKATLTVDKSSSTAYMELNSLTSEDSAVYYCARDGSIHYVMDDWGQGTSVTVSS
VL: DIVMSQSPSSLTVSAGDKVTMSCKSSQSLLHSGNQKNYLAWYQQKPWQPPKLLIYGASTRESGVPDRFTGSGSGTDFTLTISSVQAEDLAVYYCQNDYGYPYTFGGGTKLEIK
notes: as for B1
B4: mouse anti-CTLA4 monoclonal antibody D1H3 (antibody, V domains shown)
VH: QVQLQQPGAELVNPGASVKLSCKASGYTFTSYWLHWVKQRPGRGLEWIGRIDPNRGTIYYNEKFNNKATVTVDKPSNTAYMQLSRLTLEDSAVYYCARGGSNFYAMDYWGQGTSVTVSS
VL: DIQMTQSPASLSASVGETVTITCRTSENIYSYLAWYQQKQGESPQLLVYNAKTLAEGVPSRFSGSGSGTQFSLKINSLQPEDFGSYYCQNHDGIPFTFGSGTKLEIK
notes: as for B1
B5: chimeric C1G4 anti-CTLA4 antibody (antibody, human IgG4 S228P, kappa, V domains shown)
VH: EVKLDETGGGLVQPGRPIKLSCVASGFTFSDNWMNWVRQSPEKGLEWVAQIRNKPYNYETYYSDSVKGRFTISRDDSKSSVYLQMNNLRTKDMGIYYCTGGFTYWGQGTLVTVSA
VL: DIQMTQSPPSLSASVGETVTITCGASENIYGGLNWYQRKQGKSPQLLIYGATNLADGMSSRFSGSGSGRQYSLKISRLHPDDVATYYCQNVLNTPYTFGGGTKLEIKR
notes: mouse variable domains on human IgG4/kappa, made in 293F cells
B6: chimeric D1B6 anti-CTLA4 antibody (antibody, human IgG4 S228P, kappa, V domains shown)
VH: EVQLQQSGPELVKPGASVKLSCKASGNTFTTYVLNWVKQKPGQGLEWIGYFNPYNDGIKYNEKFKGKATLTSDKSSNTAYMELSSLTSEDSAVYYCARFEGGGYAMDYWGQGTSVTVSS
VL: DIVLTQSPASLAVSLGQRATISCRASQSVGTSRNTYIHWYQQKLGQPPKLLIKYASDLESGVPARFSGSGSGTDFTLNIHPVEEEDTATYYCQHSWEIPYTFGGGTKLEIKR
notes: as for B5
B7: mouse anti-CTLA4 monoclonal antibody D1G6 (antibody, V domains shown)
VH: B6 VH with G57A, N77S
VL: DIVLTQSPASLAVSLGQRATISCRASQSVGTSSYSYIHWYQQKPGQPPKLLIKYASDLESGVPARFSGSGSGTDFTLNIHPVEEEDTATYYCQHSWEIPYTFGGGTKLEIK
notes: as for B1
B8: mouse anti-CTLA4 monoclonal antibody D1B8 (antibody, V domains shown)
VH: QIQLQQSGPELVKPGASVKISCKASGYTFTDYYINWVKQRPGQGLEWIGWIYPGNNNTRYNEKFKGKATLTIDTSSSTAFMHLSSLTSEDSAVYFCARYYFDYWGQGTTLTVSS
VL: DIQMTQSPSSLSASLGERISLTCRASQEITGYLSWLQQKPDGTIKRLIYAASTLDSGVPQRFSGSRSGSDYSLTISSLESEDFADYYCLQYASYPRTFGGGTKLEIK
notes: as for B1
B9: chimeric D1B8 anti-CTLA4 antibody (antibody, human IgG4 S228P, kappa, V domains shown)
VH: B8 VH
VL: DIQMTQSPSSLSASLGERISLTCRASQEITGYLSWLQQKPDGTIKRLIYAASTLDSGVPQRFSGSRSGSDYSLTISSLESEDFADYYCLQYASYPRTFGGGTKLEIKR
notes: mouse variable domains on human IgG4/kappa

These binders were tested against T1, recombinant human CTLA4 protein with … (assay: cell based blocking FACS: antibody pre-mixed with human CTLA4-Fc (1 ug/mL), added to Daudi cells; blocked ligands: cell surface CD80/CD86).
Method: Daudi cells were harvested from cell culture flasks at the log phase, washed twice and re-suspended in PBS containing 2% v/v Fetal Bovine Serum (FACS buffer). […] Cells were washed twice and re-suspended in FACS buffer. Fluorescence was measured using a Becton Dickinson FACS Canto II-HTS equipment. Data was analyzed using Graphpad Prism software and IC₅₀ values were reported.

| Binder | IC50 [nM] |
| --- | --- |
| B1 | 7.12 |
| B2 | 6.81 |
| B3 | ~8.85 |
| B4 | 9.27 |

What follows are binders tested against T2, recombinant human CTLA4-his protein … (assay: BLI, Octet RED96; antibody on AHC sensor, CTLA4-his as analyte).
Method: Briefly, AHC biosensors (anti-human IgG Fc capture, from ForteBio) were presoaked with 10 mM glycine (pH 1.5) for 3 seconds, and then dipped in a well with running buffer (0.5% w/v BSA in PBST) for 3 seconds, the soaking and dipping steps were repeated for three times. […] A new baseline was run for 180 seconds in another well with running buffer. […] Finally, sensors were presoaked with 10 mM glycine (pH 1.5) for 3 seconds, and then were dipped in a well with running buffer for 3 seconds, the soaking and dipping steps repeated for three times. The association and dissociation curves were fit to a 1:1 Langmuir binding model using ForteBio Data Analysis 8.1.

| Binder | Kd [nM] | koff [s⁻¹] | kon [M⁻¹ s⁻¹] |
| --- | --- | --- | --- |
| B5 | 1 | 0.000679 | 676000 |
| B6 | 148 | 0.00076 | 5140 |

Each binder was assayed against T1, recombinant human CTLA4 protein with … (assay: competitive ELISA: antibody pre-mixed with biotin human CTLA4-Fc (65 ng/ml), added to plate coated with the benchmark; competitor: coated Yervoy).
Method: Plates were washed once with wash buffer, blocked with 200 µl PBST with 5% w/v non-fatty milk, incubated for 2 hours at 37° C., and washed 4 times.
After incubation at 37° C. for 40 minutes, plates were washed 4 times again using wash buffer. Then the plates were added and incubated with 100 µl/well streptavidin conjugated HRP (1:10000 dilution in PBST, Jackson Immuno Research, Cat#016-030-084, 100 µl/well) for 40 minutes at 37° C. Plates were finally washed using wash buffer. Finally, TMB was added and the reaction was stopped using 1M H₂SO₄, and the absorbance of the each well was read on a microplate reader using dual wavelength mode with 450 nm for TMB and 630 nm as the reference wavelength, then the OD (450-630) values were plotted against antibody concentration. Data was analyzed using Graphpad Prism software and IC₅₀ values were reported.

| Binder | IC50 [nM] | IC50 (read off the curve) [nM] |
| --- | --- | --- |
| B1 | 3.85 |  |
| B2 | 0.445 |  |
| B3 |  | ~2 |
| B4 | 1.86 |  |
| B7 | 0.445 |  |

Each binder was assayed against T3, cynomolgus monkey CTLA4-his protein … (assay: SPR, Biacore T200; antibody captured, CTLA4-his as analyte).
Method: (§1) Un-reacted moieties on the biosensor surface were blocked with ethanolamine. […] The antigen-antibody association kinetics was followed for 2 minutes and the dissociation kinetics was followed for 10 minutes. The association and dissociation curves were fit to a 1:1 Langmuir binding model using BIAcore evaluation software.

| Binder | Kd [nM] | koff [s⁻¹] | kon [M⁻¹ s⁻¹] |
| --- | --- | --- | --- |
| B1 | 2.24 | 0.00076 | 340000 |
| B2 | 1.66 | 0.00137 | 829000 |
| B8 | 1.18 | 0.000532 | 451000 |
| B3 | 0.727 | 0.000422 | 580000 |
| B4 | 2.07 | 0.000601 | 290000 |
| B7 | 1.96 | 0.000662 | 338000 |

Each binder was assayed against T2, recombinant human CTLA4-his protein … in the same assay as above.
Method: as §1

| Binder | Kd [nM] | koff [s⁻¹] | kon [M⁻¹ s⁻¹] |
| --- | --- | --- | --- |
| B1 | 2.24 | 0.00153 | 671000 |
| B2 | 2.41 | 0.000602 | 249000 |
| B8 | 2.24 | 0.000495 | 221000 |
| B3 | 0.925 | 0.000321 | 346000 |
| B4 | 4.15 | 0.000931 | 224000 |
| B7 | 9.06 | 0.000695 | 76700 |

The binders below were run against T1, recombinant human CTLA4 protein with … (assay: cell-based or functional assay).

| Binder | EC50 of IL-2 release (GS-J1 T cells + GS-C1/CD80 cells + human CTLA4-Fc, IL-2 HTRF) [nM] |
| --- | --- |
| B1 | 38.3 |
| B2 | 45.9 |
| B8 | 43.6 |
| B3 | ~40.8 |
| B4 | 37.8 |
| B7 | 41.5 |

What follows are binders tested against T1, recombinant human CTLA4 protein with … (assay: cell based blocking FACS: antibody pre-mixed with human CTLA4-Fc, added to Daudi cells; blocked ligands: cell surface CD80/CD86).

| Binder | IC50 [nM] |
| --- | --- |
| B5 | 10.2 |
| B6 | ~6.6 |

What follows are binders tested against T1, recombinant human CTLA4 protein with … (assay: capture ELISA: antibody captured on anti-mouse IgG F(ab')2 coated plate, biotin human CTLA4-Fc 26 ng/ml, streptavidin-HRP, OD(450-630)).
Method: (§2) Plates were washed once with wash buffer (PBS+0.05% v/v Tween-20, PBST) and then blocked with 200 µl/well blocking buffer (PBST with 5% w/v non-fatty milk) for 2 hours at 37° C. […] After a final wash, plates were incubated with 100 µl/well substrate TMB (Innoreagents, Cat#TMB-S-002). The reaction was stopped in 15 minutes at room temperature with 50 µl/well 1M H₂SO₄, and the absorbance of the each well was read on a microplate reader using dual wavelength mode with 450 nm for TMB and 630 nm as the reference wavelength, then the OD (450-630) values were plotted against antibody concentration. Data was analyzed using Graphpad Prism software and EC₅₀ values were reported.

| Binder | EC50 [nM] |
| --- | --- |
| B1 | 0.245 |
| B2 | 0.134 |
| B8 | 1.11 |
| B3 | 0.108 |
| B4 | 0.206 |
| B7 | 0.0979 |

These binders were tested against T1, recombinant human CTLA4 protein with … (assay: capture ELISA: antibody captured on coated plate (anti-human IgG Fc for the chimeric antibodies), biotin human CTLA4-Fc, streptavidin-HRP, OD(450-630)).
Method: as §2
For the capture ELISA, AffiniPure Goat Anti-Human IgG, Fcy fragment specific (Jackson Immuno Research, Cat#109-005-008) was used instead of AffiniPure Goat Anti-Mouse IgG, F(ab′)₂ fragment specific, 100 µl/well.

| Binder | EC50 [nM] |
| --- | --- |
| B8 | 5.78 |
| B9 | 2.84 |
| B5 | 0.869 |
| B6 | 0.514 |
